Results taken from patent US20180066015A1, “INHIBITORS OF GROWTH FACTOR ACTIVATION ENZYMES” (Washington University, published 2018).
No end group written: not given here. *: point of attachment. kbt‑6‑CONH‑4‑pyridine = ketobenzothiazole-6-CONH-4-pyridine (Kbt-4-pyridinylamide), O=C(Nc1ccncc1)c1ccc2nc(*)sc2c1; kbt‑6‑CONH‑Bn = ketobenzothiazole-6-CONH-benzyl (Kbt-benzylamide), O=C(NCc1ccccc1)c1ccc2nc(*)sc2c1; kbt‑6‑COOH = ketobenzothiazole-6-COOH, O=C(O)c1ccc2nc(*)sc2c1; kbt = C-terminal ketobenzothiazole, c1ccc2sc(*)nc2c1; Kbt = ketobenzothiazole, c1ccc2sc(*)nc2c1

T1: matriptase (Charles Craik, UCSF), recombinant (Homo sapiens (Human), UniProt Q9Y5Y6)
T1 sequence: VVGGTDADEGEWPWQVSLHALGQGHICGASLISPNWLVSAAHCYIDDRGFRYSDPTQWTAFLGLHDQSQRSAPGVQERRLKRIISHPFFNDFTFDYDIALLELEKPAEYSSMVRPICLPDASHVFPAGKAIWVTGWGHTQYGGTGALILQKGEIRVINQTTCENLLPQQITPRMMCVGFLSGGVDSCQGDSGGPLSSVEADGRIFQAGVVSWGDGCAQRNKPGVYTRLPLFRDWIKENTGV

B1: Ac-SKLR(SEQ ID NO: 10)-Kbt-COOH (peptide)
peptide: Ac-SKLR-{kbt‑6‑COOH}
SMILES: CC(=O)N[C@@H](CO)C(=O)N[C@@H](CCCCN)C(=O)N[C@@H](CC(C)C)C(=O)N[C@@H](CCCNC(=N)N)C(=O)c1nc2ccc(C(=O)O)cc2s1
B2: Ac-FLFR(SEQ ID NO: 19)-Kbt (peptide)
peptide: Ac-FLFR-Kbt
SMILES: CC(=O)N[C@@H](Cc1ccccc1)C(=O)N[C@@H](CC(C)C)C(=O)N[C@@H](Cc1ccccc1)C(=O)N[C@@H](CCCNC(=N)N)C(=O)c1nc2ccccc2s1
B3: Ac-SKLR(SEQ ID NO: 10)-Kbt (peptide)
peptide: Ac-SKLR-kbt
SMILES: CC(=O)N[C@@H](CO)C(=O)N[C@@H](CCCCN)C(=O)N[C@@H](CC(C)C)C(=O)N[C@@H](CCCNC(=N)N)C(=O)c1nc2ccccc2s1
B4: Ac-KRLR(SEQ ID NO: 8)-Kbt (peptide)
peptide: Ac-KRLR-Kbt
SMILES: CC(=O)N[C@@H](CCCCN)C(=O)N[C@@H](CCCNC(=N)N)C(=O)N[C@@H](CC(C)C)C(=O)N[C@@H](CCCNC(=N)N)C(=O)c1nc2ccccc2s1
B5: H-WRLR(SEQ ID NO: 9)-Kbt (peptide)
peptide: H-WRLR-kbt
SMILES: CC(C)C[C@H](NC(=O)[C@H](CCCNC(=N)N)NC(=O)[C@@H](N)Cc1c[nH]c2ccccc12)C(=O)N[C@@H](CCCNC(=N)N)C(=O)c1nc2ccccc2s1

Tests used:
[1] = target: Hepatocyte Growth Factor Activator (HGFA) serine protease domain, N-terminal His-tag, recombinant (Homo sapiens (Human)) (UniProt Q04756); assay: fluorogenic inhibition assay
[2] = target: T1, matriptase (Charles Craik, UCSF), …; assay: fluorogenic inhibition assay
Experimental: (§1) Inhibitors (11-pt serial dilutions, 0-20 μM final concentration in reaction) were serially diluted in DMSO (2% DMSO final concentration) and then mixed with either recombinant serine protease domain of HGFA [Z. Han, P. K. Harris, D. E. Jones, R. Chugani, T. Kim, M. Agarwal, W. Shen, S. A. Wildman, J. W. Janetka, Acs Med Chem Lett 2014, 5, 1219-1224], matriptase (Charles Craik, UCSF) or hepsin* (#4776-SE-010, R&D Systems, Minneapolis, Minn.) in black 384 well plates (Corning #3575. Corning, N.Y.). […] The final substrate concentrations for all assays were at the Kₘ for the respective enzymes. Changes in fluorescence (excitation at 380 nm and emission at 460 nm) were measured at room temperature over time in a Biotek Synergy 2 plate reader (Winnoski, Vt.). Using GraphPad Prism version 6.04 software program, (GraphPad Software, San Diego, Calif., www.graphpad.com), a four parameter curve fit was used to determine the inhibitor IC₅₀s from a plot of the mean reaction velocity versus the inhibitor concentration. The IC₅₀ values represent the average of three separate experimental determinations.
(§2) Fluorescent inhibitor and chromogenic proteolytic assays were performed in general accordance with the procedures described in Example 4 for compounds prepared in Examples 5 and 6.

[3] = target: Recombinant human hepsin (4776-SE-010, R&D Systems), activated (human, UniProt P05981); assay: fluorogenic inhibition assay
Experimental: as §1, §2

Factor Xa = assay: selectivity inhibition assay
recombinant thrombin = assay: selectivity inhibition assay
Trypsin = assay: selectivity inhibition assay

| Binder | Ki [1] [nM] | Ki [2] [nM] | Ki [3] [nM] | Ki (Factor Xa) [nM] | Ki (recombinant thrombin) [µM] | Ki (Trypsin) [nM] |
| --- | --- | --- | --- | --- | --- | --- |
| B1 | 132 | 54.8 | 0.173 | 1250 | > 2 | 0.03 |
| Ac-SKLR-{kbt‑6‑CONH‑4‑pyridine} [Ac-SKLR(SEQ ID NO: 10)-Kbt-4-pyridinylamide] | 31.8 | 3.95 | 0.14 | 221 | 3.43 | 1.06 |
| B2 | 114 | 3.6 | 1.44 | 13.1 | > 20 | 0.27 |
| B3 | 33 | 3.05 | 0.16 | 1900 | > 20 | 0.16 |
| H-Trp-Leu-Arg-{kbt-Val-NH2} [H-WLR-kbt-Val-NH2] | 73.9 | 49.2 | 1.31 | 159 | 0.041 | 0.01 |
| Ac-SKLR (not fully specified (C-terminus)) [Ac-SKLR(SEQ ID NO: 10)-Kbt-Trp-NH2] | 15.8 | 3.74 | 0.098 | 163 | 1.23 | 0.02 |
| B4 | 6 | 0.54 | 0.112 | 91.9 | > 20 | 0.82 |
| B5 | 8.75 | 3.79 | 0.12 | 2.4 | 4.89 | 0.96 |
| Ac-SKLR-{kbt‑6‑CO-Val-NH2} [Ac-SKLR(SEQ ID NO: 10)-Kbt-Val-NH2] | 13 | 10.3 | 0.19 | 385 | 4.5 | 0.34 |
| H-Arg-Leu-Arg-{kbt-Val-NH2} [H-RLR-kbt-Val-NH2] | 12.5 | 4.2 | 0.44 | 18 | 0.548 | 0.31 |
| Ac-SKLR (not fully specified (C-terminus)) [Ac-SKLR(SEQ ID NO: 10)-Kbt-Phe-NH2] | 17.3 | 6.26 | 0.14 | 544 | 3.64 | 0.27 |
| Ac-SKLR-{kbt‑6‑CONH‑Bn} [Ac-SKLR(SEQ ID NO: 10)-Kbt-benzylamide] | 9.1 | 0.36 | 0.8 | 190 | 2.47 | 0.05 |
